Measurements published in IntAct's records for PubMed 31515488.

B1: Tuftelin-interacting protein 11 (Homo sapiens), Q9UBB9 (parent)
chain: MSLSHLYRDGEGRIDDDDDERENFEITDWDLQNEFNPNRQRHWQTKEEATYGVWAERDSDDERPSFGGKRARDYSAPVNFISAGLKKGAAEEAELEDSDDEEKPVKQDDFPKDFGPRKLKTGGNFKPSQKGFAGGTKSFMDFGSWERHTKGIGQKLLQKMGYVPGRGLGKNAQGIINPIEAKQRKGKGAVGAYGSERTTQSMQDFPVVDSEEEAEEEFQKELSQWRKDPSGSKKKPKYSYKTVEELKAKGRISKKLTAPQKELSQVKVIDMTGREQKVYYSYSQISHKHNVPDDGLPLQSQQLPQSGKEAKAPGFALPELEHNLQLLIDLTEQEIIQNDRQLQYERDMVVNLFHELEKMTEVLDHEERVISNLSKVLEMVEECERRMQPDCSNPLTLDECARIFETLQDKYYEEYRMSDRVDLAVAIVYPLMKEYFKEWDPLKDCTYGTEIISKWKSLLENDQLLSHGGQDLSADAFHRLIWEVWMPFVRNIVTQWQPRNCDPMVDFLDSWVHIIPVWILDNILDQLIFPKLQKEVENWNPLTDTVPIHSWIHPWLPLMQARLEPLYSPIRSKLSSALQKWHPSDSSAKLILQPWKDVFTPGSWEAFMVKNIVPKLGMCLGELVINPHQQHMDAFYWVIDWEGMISVSSLVGLLEKHFFPKWLQVLCSWLSNSPNYEEITKWYLGWKSMFSDQVLAHPSVKDKFNEALDIMNRAVSSNVGAYMQPGARENIAYLTHTERRKDFQYEAMQERREAENMAQRGIGVAASSVPMNFKDLIETKAEEHNIVFMPVIGKRHEGKQLYTFGRIVIYIDRGVVFVQGEKTWVPTSLQSLIDMAK
B2: SR-related and CTD-associated factor 8 (Homo sapiens), Q9UPN6 (parent)
chain: MEAVKTFNSELYSLNDYKPPISKAKMTQITKAAIKAIKFYKHVVQSVEKFIQKCKPEYKVPGLYVIDSIVRQSRHQFGQEKDVFAPRFSNNIISTFQNLYRCPGDDKSKIVRVLNLWQKNNVFKSEIIQPLLDMAAGIPPPVVTPVLASTTTAMSNTPGTPVTPVTPANVVQGLPDPWVSQITNTDTLAAVAQILQSPQGQQLQQLIQTLQIQQQKPQPSILQALDAGLVVQLQALTAQLTAAAAAANTLTPLEQGVSFNKKLMDRFDFGEDSEHSEEPKKEIPASQLSHVSESVNNSIFHQIAEQLQQQNLEHLRQQLLEQQQPQKATPQDSQEGTFGSEHSASPSQGSSQQHFLEPEVNLDDSIDIQQQDMDIDEGQDGVEEEVFEQEAKKVAVRSRSRTHSRSRSRSPRKRRSRSRSGSRKRKHRKRSRSRSRERKRKSSRSYSSERRAREREKERQKKGLPPIRSKTLSVCSTTLWVGQVDKKATQQDLTNLFEEFGQIESINMIPPRGCAYVCMVHRQDAFRALQKLSSGSYKIGSKVIKIAWALNKGVKTEYKQFWDVDLGVTYIPWEKVKVDDLEGFAEGGMIDQETVNTEWETVKSSEPVKETVQTTQSPTPVEKETVVTTQAEVFPPPVAMLQIPVAPAVPTVSLVPPAFPVSMPVPPPGFSPIPPPPFLRASFNPSQPPPGFMPPPVPPPVVPPPTIPPVVPTSLVQPSLSMTPETVKDVGFGSLVIPGGSVASNLATSALPAGNVFNAPTKQAEPEEKVPHLIDHQISSGENTRSVIPNDISSNAAILGGQPPNVTSNSGILGVQRPNVSSNSEILGVRPSNVSSSSGIIAAQPPNILNNSGILGIQPPSVSNSSGLLGVLPPNIPNNSGLVGVQPPNVPNTPGLLGTQPPAGPQNLPPLSIPNQRMPTMPMLDIRPGLIPQAPGPRFPLIQPGIPPQRGIPPPSVLDSALHPPPRGPFPPGDIFSQPERPFLAPGRQSVDNVTNPEKRIPLGNDNIQQEGDRDYRFPPIETRESISRPPPVDVRDVVGRPIDPREGPGRPPLDGRDHFGRPPVDIRENLVRPGIDHLGRRDHFGFNPEKPWGHRGDFDEREHRVLPVYGGPKGLHEERGRFRSGNYRFDPRSGPWNRGFGQEVHRDFDDRRRPWERQRDRDDRDFDFCREMNGNRLGRDRIQNTWVPPPHARVFDYFEGATSQRKGDNVPQVNGENTERHAQPPPIPVQNDPELYEKLTSSNEINKEKSDTVADIESEPVVESTETEGT
partner: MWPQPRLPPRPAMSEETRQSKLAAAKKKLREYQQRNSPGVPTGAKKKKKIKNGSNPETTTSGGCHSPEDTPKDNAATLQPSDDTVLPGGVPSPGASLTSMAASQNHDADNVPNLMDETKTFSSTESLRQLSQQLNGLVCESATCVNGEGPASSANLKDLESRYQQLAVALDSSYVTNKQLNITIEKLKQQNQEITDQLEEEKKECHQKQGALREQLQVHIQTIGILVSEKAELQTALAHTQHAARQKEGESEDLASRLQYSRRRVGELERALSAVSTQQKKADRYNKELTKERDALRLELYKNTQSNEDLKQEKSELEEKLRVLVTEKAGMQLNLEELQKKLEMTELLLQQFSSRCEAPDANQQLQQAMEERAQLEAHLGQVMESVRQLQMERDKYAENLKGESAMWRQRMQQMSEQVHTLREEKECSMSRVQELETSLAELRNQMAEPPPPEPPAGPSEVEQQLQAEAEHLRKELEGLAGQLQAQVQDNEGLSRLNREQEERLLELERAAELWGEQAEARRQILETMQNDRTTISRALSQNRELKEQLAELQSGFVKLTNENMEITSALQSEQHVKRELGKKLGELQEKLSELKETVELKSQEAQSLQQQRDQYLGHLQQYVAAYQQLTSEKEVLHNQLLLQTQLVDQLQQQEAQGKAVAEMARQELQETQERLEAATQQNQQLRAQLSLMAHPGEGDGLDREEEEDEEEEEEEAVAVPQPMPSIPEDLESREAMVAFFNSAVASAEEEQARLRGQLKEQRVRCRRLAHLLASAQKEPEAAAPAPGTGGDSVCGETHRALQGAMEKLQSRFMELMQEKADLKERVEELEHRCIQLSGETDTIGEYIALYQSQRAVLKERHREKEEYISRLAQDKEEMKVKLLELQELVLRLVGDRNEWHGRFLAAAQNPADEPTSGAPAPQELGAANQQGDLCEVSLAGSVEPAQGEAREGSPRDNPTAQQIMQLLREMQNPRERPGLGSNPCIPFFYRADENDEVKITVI
B3: Zinc finger protein with KRAB and SCAN domains 4 (Homo sapiens), Q969J2 (parent)
chain: MAREPRKNAALDAQSAEDQTGLLTVKVEKEEASALTAEVRAPCSPARGPERSRQRFRGFRYPEAAGPREALSRLRELCGQWLQPEMHSKEQILELLVLEQFLTILPGNLQSWVREQHPESGEEVVVLLEYLERQLDEPAPQVPVGDQGQELLCCKMALLTQTQGSQSSQCQPMKALFKHESLGSQPLHDRVLQVPGLAQGGCCREDAMVASRLTPGSQGLLKMEDVALTLTPGWTQLDSSQVNLYRDEKQENHSSLVSLGGEIQTKSRDLPPVKKLPEKEHGKICHLREDIAQIPTHAEAGEQEGRLQRKQKNAIGSRRHYCHECGKSFAQSSGLTKHRRIHTGEKPYECEDCGKTFIGSSALVIHQRVHTGEKPYECEECGKVFSHSSNLIKHQRTHTGEKPYECDDCGKTFSQSCSLLEHHKIHTGEKPYQCNMCGKAFRRNSHLLRHQRIHGDKNVQNPEHGESWESQGRTESQWENTEAPVSYKCNECERSFTRNRSLIEHQKIHTGEKPYQCDTCGKGFTRTSYLVQHQRSHVGKKTLSQ

Variants of: B1
Conditions: with zmat2_human ZMAT2, Q96NC0
zmat2_human ZMAT2, Q96NC0, sequence (Q96NC0 whole entry): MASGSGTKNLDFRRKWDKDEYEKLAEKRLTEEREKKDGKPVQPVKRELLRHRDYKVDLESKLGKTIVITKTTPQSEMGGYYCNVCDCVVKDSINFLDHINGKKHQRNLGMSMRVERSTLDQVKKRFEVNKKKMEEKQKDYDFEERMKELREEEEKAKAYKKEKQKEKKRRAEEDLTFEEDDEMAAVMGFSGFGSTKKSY

| Variant | effect of a mutation on the interaction |
| --- | --- |
| S688L | with no effect |

Variants of: B1
Conditions: with cox5b_human COX5B

| Variant | effect of a mutation on the interaction |
| --- | --- |
| S688L | with no effect |

Variants of: B1
Conditions: with txlna_human TXLNA

| Variant | effect of a mutation on the interaction |
| --- | --- |
| S688L | with no effect |

Variants of: B1
Conditions: with hook1_human HOOK1, Q9UJC3

| Variant | effect of a mutation on the interaction |
| --- | --- |
| S688L | with no effect |

Variants of: B1
Conditions: with tnnt1_human TNNT1, P13805
tnnt1_human TNNT1, P13805, sequence (P13805 whole entry): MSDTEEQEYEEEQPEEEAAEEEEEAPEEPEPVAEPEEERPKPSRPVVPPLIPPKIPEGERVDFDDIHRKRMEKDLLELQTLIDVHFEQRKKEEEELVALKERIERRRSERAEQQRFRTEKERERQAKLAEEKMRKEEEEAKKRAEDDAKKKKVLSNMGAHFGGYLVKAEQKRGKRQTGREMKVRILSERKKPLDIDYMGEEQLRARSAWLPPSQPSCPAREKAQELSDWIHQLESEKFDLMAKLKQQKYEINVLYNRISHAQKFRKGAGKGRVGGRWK

| Variant | effect of a mutation on the interaction |
| --- | --- |
| S688L | with no effect |

Variants of: B1
Conditions: with coq8a_human COQ8A

| Variant | effect of a mutation on the interaction |
| --- | --- |
| S688L | with no effect |

Variants of: B1
Conditions: with smce1_human SMARCE1, Q969G3
smce1_human SMARCE1, Q969G3, sequence (Q969G3 whole entry): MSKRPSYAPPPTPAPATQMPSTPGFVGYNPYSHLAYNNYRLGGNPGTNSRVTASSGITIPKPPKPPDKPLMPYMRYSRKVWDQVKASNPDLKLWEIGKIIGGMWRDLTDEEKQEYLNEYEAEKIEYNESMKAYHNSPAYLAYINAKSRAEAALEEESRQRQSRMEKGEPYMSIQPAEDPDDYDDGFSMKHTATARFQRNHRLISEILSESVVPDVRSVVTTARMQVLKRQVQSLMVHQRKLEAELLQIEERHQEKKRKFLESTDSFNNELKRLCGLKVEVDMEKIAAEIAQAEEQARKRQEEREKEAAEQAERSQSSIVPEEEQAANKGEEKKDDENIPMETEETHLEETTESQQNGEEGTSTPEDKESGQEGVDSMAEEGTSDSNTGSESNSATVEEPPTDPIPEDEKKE

| Variant | effect of a mutation on the interaction |
| --- | --- |
| S688L | with no effect |

Variants of: B1
Conditions: with bmf_human BMF

| Variant | effect of a mutation on the interaction |
| --- | --- |
| S688L | with no effect |

Variants of: B1
Conditions: with fa13c_human FAM13C

| Variant | effect of a mutation on the interaction |
| --- | --- |
| S688L | with no effect |

Variants of: B1
Conditions: with prp31_human PRPF31, Q8WWY3
prp31_human PRPF31, Q8WWY3, sequence (Q8WWY3 whole entry): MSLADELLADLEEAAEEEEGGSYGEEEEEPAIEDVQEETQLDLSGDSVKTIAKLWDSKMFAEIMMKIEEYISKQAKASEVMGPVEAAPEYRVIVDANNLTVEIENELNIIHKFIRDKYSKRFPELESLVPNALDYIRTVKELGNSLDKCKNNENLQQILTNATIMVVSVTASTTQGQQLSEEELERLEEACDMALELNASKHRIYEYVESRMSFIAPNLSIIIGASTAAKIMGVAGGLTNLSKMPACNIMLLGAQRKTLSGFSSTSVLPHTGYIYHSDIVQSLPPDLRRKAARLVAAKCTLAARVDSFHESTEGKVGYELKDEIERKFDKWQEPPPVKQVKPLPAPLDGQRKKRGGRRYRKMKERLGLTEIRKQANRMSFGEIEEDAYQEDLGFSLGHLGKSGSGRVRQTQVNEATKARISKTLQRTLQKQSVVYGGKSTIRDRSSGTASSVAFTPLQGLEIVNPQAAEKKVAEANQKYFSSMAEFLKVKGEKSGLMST

| Variant | effect of a mutation on the interaction |
| --- | --- |
| S688L | with no effect |

Variants of: B1
Conditions: with snw1_human SNW1, Q13573
snw1_human SNW1, Q13573, sequence (Q13573 whole entry): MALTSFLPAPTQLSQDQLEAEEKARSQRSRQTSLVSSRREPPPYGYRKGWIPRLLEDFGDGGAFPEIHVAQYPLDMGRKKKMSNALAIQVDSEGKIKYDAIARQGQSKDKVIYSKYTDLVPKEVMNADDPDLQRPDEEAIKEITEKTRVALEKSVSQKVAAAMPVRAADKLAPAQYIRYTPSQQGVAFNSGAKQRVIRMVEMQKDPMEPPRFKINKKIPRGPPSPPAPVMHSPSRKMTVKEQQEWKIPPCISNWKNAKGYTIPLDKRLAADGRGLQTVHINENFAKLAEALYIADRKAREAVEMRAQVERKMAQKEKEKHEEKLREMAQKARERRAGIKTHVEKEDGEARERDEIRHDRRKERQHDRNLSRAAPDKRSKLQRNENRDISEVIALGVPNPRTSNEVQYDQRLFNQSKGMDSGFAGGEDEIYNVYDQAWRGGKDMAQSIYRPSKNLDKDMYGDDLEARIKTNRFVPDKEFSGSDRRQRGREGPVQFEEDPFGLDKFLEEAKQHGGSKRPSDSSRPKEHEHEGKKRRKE

| Variant | effect of a mutation on the interaction |
| --- | --- |
| S688L | with no effect |

Variants of: B1
Conditions: with sfr1_human SFR1, Q86XK3

| Variant | effect of a mutation on the interaction |
| --- | --- |
| S688L | with no effect |

Variants of: B1
Conditions: with zfy26_human ZFYVE26, Q68DK2

| Variant | effect of a mutation on the interaction |
| --- | --- |
| S688L | with no effect |

Variants of: B1
Conditions: with abi2_human ABI2, Q9NYB9
abi2_human ABI2, Q9NYB9, sequence (Q9NYB9 whole entry): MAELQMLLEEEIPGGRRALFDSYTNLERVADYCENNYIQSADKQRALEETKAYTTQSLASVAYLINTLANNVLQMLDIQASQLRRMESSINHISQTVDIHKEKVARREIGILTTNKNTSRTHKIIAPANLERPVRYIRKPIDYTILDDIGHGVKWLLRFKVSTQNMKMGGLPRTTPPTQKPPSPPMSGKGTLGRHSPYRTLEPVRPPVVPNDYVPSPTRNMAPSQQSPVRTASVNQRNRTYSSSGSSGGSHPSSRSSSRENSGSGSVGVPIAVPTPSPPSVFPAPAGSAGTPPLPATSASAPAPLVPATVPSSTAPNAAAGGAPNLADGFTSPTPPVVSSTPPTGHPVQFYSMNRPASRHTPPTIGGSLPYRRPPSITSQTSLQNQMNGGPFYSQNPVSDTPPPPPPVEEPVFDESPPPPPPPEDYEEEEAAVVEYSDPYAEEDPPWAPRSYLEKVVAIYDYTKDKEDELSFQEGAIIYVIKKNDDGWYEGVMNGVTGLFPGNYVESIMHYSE

| Variant | effect of a mutation on the interaction |
| --- | --- |
| S688L | with no effect |

Variants of: B1
Conditions: with cc121_human CCDC121, Q6ZUS5

| Variant | effect of a mutation on the interaction |
| --- | --- |
| S688L | with no effect |

Variants of: B1
Conditions: with KRT6A

| Variant | effect of a mutation on the interaction |
| --- | --- |
| S688L | with no effect |

Variants of: B2
Conditions: with goga2_human GOLGA2, Q08379

| Variant | effect of a mutation on the interaction |
| --- | --- |
| M1173V | with no effect |

Variants of: B3
Conditions: with zsc32_human ZSCAN32, Q9NX65
zsc32_human ZSCAN32, Q9NX65, sequence (Q9NX65 whole entry): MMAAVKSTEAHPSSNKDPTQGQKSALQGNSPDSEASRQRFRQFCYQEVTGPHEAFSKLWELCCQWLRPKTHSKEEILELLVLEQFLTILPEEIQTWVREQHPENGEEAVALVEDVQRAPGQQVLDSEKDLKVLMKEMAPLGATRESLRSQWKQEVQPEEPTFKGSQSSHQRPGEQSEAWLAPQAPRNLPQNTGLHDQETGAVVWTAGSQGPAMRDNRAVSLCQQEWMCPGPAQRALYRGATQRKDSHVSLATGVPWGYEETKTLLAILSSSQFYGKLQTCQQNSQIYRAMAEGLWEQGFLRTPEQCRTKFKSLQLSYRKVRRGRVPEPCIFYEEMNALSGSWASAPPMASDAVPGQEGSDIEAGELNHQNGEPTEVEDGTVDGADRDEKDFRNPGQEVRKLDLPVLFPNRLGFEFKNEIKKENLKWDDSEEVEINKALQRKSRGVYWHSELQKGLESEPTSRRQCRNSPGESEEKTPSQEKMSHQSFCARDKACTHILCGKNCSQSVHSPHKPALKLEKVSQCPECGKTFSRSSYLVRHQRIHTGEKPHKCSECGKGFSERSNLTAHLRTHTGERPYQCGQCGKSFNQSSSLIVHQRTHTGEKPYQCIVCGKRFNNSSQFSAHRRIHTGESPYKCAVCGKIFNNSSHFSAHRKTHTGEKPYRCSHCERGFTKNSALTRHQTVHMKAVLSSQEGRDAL

| Variant | effect of a mutation on the interaction |
| --- | --- |
| S33F | with no effect |
| G79R | with no effect |
| L22F | with no effect |

Variants of: B3
Conditions: with zksc7_human ZKSCAN7, Q9P0L1
zksc7_human ZKSCAN7, Q9P0L1, sequence (Q9P0L1 whole entry): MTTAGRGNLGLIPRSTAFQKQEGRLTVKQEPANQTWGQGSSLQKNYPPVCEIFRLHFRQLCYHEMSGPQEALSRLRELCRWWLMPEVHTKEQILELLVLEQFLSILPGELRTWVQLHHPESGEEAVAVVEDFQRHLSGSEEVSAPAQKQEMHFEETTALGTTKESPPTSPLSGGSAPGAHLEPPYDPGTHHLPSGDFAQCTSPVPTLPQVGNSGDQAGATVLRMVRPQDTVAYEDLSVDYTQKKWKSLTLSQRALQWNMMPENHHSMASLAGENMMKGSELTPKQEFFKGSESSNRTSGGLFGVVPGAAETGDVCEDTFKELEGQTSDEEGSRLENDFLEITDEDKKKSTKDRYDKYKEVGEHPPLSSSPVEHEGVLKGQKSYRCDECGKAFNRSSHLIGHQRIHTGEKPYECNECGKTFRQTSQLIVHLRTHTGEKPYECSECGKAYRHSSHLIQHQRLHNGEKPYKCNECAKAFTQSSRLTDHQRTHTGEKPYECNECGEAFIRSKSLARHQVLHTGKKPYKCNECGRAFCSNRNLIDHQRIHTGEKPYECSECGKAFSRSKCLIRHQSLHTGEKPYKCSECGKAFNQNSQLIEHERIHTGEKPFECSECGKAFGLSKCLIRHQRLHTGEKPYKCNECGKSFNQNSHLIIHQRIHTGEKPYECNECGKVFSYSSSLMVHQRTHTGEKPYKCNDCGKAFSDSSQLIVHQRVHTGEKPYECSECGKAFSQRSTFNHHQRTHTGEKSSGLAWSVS

| Variant | effect of a mutation on the interaction |
| --- | --- |
| S33F | with no effect |
| G79R | with no effect |
| L22F | with no effect |

Variants of: B3
Conditions: with znf24_human ZNF24, P17028
znf24_human ZNF24, P17028, sequence (P17028 whole entry): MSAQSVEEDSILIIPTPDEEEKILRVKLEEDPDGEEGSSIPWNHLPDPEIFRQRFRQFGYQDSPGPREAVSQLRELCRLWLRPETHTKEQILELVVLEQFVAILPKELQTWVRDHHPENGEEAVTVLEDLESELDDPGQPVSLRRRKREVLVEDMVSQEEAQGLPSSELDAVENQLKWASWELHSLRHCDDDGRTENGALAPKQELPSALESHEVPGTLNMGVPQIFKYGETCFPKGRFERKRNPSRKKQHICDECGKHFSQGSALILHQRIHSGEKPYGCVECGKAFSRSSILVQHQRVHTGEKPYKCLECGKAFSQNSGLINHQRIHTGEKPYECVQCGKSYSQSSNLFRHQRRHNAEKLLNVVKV

| Variant | effect of a mutation on the interaction |
| --- | --- |
| S33F | with no effect |
| G79R | disrupting interaction strength |
| L22F | with no effect |

Variants of: B3
Conditions: with zn496_human ZNF496, Q96IT1
zn496_human ZNF496, Q96IT1, sequence (Q96IT1 whole entry): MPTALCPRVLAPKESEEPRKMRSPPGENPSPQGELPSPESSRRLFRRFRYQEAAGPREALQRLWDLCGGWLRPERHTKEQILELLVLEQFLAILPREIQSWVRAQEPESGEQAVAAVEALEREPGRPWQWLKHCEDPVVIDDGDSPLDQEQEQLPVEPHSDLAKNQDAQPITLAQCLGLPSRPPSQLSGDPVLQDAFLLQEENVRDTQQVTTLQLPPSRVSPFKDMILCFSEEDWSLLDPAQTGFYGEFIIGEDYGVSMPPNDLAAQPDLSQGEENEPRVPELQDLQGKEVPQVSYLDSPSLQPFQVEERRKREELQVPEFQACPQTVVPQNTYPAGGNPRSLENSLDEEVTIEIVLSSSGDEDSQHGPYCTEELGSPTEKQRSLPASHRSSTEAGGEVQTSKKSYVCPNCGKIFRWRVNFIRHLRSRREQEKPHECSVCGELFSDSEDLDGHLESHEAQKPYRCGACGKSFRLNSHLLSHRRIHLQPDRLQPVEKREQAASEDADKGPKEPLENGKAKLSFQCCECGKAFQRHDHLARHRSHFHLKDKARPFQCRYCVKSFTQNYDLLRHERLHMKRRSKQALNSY

| Variant | effect of a mutation on the interaction |
| --- | --- |
| S33F | with no effect |
| G79R | with no effect |
| L22F | with no effect |
